This note sets out measurements from US20030208060A1.

The Kd is the free concentration of one partner at which half of the binding sites on the other are occupied at equilibrium, for simple one-to-one binding.

The target in experiment [1] is T1, apoE- and lipoprotein lipase-independent TGRLP receptor (apoB48R) on the surface of THP-1 monocyte-macrophages (human) (UniProt Q0VD83).
T1 sequence: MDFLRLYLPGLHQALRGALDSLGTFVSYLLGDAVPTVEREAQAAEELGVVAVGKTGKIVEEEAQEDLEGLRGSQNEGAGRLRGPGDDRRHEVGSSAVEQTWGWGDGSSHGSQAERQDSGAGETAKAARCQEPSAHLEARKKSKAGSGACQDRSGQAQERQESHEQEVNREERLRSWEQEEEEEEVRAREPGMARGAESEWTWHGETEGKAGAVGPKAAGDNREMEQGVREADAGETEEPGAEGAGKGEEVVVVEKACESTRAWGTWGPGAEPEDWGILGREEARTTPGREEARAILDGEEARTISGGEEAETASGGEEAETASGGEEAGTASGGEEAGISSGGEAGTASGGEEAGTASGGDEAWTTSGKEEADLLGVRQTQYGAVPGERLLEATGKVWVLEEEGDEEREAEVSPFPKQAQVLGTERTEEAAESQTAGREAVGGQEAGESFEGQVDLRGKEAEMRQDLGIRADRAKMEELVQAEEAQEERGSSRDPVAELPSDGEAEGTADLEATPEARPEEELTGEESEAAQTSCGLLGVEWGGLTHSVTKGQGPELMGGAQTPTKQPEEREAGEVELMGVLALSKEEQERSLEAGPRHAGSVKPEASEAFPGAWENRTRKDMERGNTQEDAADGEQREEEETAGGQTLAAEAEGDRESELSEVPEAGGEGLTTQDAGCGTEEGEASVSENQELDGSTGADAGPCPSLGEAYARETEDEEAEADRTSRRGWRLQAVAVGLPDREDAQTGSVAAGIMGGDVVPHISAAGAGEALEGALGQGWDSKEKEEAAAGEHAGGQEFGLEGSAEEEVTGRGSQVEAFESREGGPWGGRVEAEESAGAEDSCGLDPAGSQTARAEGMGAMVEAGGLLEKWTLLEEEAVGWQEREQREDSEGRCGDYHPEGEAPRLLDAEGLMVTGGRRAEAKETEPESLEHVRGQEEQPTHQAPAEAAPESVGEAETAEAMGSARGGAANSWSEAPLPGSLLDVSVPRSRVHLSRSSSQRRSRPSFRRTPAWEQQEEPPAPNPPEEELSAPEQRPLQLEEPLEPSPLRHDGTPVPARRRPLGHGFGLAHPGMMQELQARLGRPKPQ
The experiment can be described thus: competition with 125I-HTG-VLDL1 for THP-1 macrophages, 4 °C, lactoferrin 500 µg/ml.

Experiment [2] has as its target T1, apoE- and lipoprotein lipase-independent TGRLP receptor (apoB48R) on the surface of THP-1 monocyte-macrophages (human). The experiment can be described thus: competition with 125I-tryp-VLDL1 for THP-1 macrophages, 4 °C, lactoferrin 100 µg/ml.
Experiment [3] addresses MBP200 (membrane binding protein of ~200 kDa; human monocyte-macrophage apoB48 receptor, apoB48R) (human) (UniProt Q0VD83). The experiment can be described thus: quantitative ligand blot, Scatchard. The settings on record: scale: ng apo very low density lipoprotein/mg cell protein.
The target in experiment [4] is MBP235 (membrane binding protein of ~235 kDa: MBP200 plus noncovalently bound subunit(s) of ~35 kDa) (human). Kind of experiment: quantitative ligand blot, Scatchard. As to conditions: scale: ng apo very low density lipoprotein/mg cell protein.
The target in experiment [5] is MBP200R (reduced, ligand-binding form generated from MBP200 and MBP235 by 2-mercaptoethanol) (human) (UniProt Q0VD83). Kind of experiment: quantitative ligand blot after reduction, Scatchard. Further details: Bmax: unit not given here.
The target in experiment [6] is T1, apoE- and lipoprotein lipase-independent TGRLP receptor (apoB48R) on the surface of THP-1 monocyte-macrophages (human). Kind of experiment: binding of 125I-HTG-VLDL at 5 µg/ml to THP-1 macrophages, 4 °C.
Experiment [7] has as its target LDL receptor of cultured human skin fibroblasts (upregulated) (human) (UniProt P01130). Kind of experiment: binding of 125I-HTG-VLDL at 5 µg/ml to fibroblasts with induced LDL receptor, 4 °C.
Experiment [8] has as its target T1, apoE- and lipoprotein lipase-independent TGRLP receptor (apoB48R) on the surface of THP-1 monocyte-macrophages (human). The experiment can be described thus: specific binding of the 125I-lipoprotein to THP-1 macrophages, 4 °C.
For experiment [9], the target named is hypertriglyceridemic very low density lipoprotein Sf100-400 (HTG-VLDL) (human) (UniProt P04114). Kind of experiment: competitive ligand blot: binding of biotinylated HTG-VLDL to MBP200 and MBP235, control IgG 400 µg/ml.
The target of experiment [10] is T1, apoE- and lipoprotein lipase-independent TGRLP receptor (apoB48R) on the surface of THP-1 monocyte-macrophages (human). The experiment can be described thus: competition with 125I-HTG-VLDL1 for THP-1 macrophages; set as 100% by definition.
Experiment [11] shares this target. Kind of experiment: competition with 125I-tryp-VLDL1 for THP-1 macrophages; set as 100% by definition.
For experiment [12] the target is unchanged. Kind of experiment: competition with 125I-tryp-VLDL2 for THP-1 macrophages; set as 100% by definition.

Sequence of lactoferrin (P02788 20-710): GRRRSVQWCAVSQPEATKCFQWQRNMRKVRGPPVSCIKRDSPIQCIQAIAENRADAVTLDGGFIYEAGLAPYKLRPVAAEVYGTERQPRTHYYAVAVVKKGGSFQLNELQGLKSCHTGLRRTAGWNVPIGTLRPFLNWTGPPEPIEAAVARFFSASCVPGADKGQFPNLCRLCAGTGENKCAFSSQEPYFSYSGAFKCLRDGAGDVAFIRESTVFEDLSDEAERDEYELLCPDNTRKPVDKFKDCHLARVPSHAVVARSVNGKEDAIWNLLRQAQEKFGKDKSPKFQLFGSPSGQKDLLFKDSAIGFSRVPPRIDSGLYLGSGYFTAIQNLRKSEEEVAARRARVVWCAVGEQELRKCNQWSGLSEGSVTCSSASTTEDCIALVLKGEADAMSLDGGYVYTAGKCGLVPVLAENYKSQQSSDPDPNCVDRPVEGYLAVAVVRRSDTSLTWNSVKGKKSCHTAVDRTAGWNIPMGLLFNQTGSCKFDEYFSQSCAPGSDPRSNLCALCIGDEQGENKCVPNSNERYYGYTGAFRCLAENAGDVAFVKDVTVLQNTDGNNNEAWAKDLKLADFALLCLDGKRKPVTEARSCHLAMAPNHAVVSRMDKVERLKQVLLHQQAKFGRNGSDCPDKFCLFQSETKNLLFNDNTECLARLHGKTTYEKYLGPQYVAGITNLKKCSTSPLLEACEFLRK
Sequence of LDL receptor of cultured human skin fibroblasts (upregulated) (human) (P01130 22-860): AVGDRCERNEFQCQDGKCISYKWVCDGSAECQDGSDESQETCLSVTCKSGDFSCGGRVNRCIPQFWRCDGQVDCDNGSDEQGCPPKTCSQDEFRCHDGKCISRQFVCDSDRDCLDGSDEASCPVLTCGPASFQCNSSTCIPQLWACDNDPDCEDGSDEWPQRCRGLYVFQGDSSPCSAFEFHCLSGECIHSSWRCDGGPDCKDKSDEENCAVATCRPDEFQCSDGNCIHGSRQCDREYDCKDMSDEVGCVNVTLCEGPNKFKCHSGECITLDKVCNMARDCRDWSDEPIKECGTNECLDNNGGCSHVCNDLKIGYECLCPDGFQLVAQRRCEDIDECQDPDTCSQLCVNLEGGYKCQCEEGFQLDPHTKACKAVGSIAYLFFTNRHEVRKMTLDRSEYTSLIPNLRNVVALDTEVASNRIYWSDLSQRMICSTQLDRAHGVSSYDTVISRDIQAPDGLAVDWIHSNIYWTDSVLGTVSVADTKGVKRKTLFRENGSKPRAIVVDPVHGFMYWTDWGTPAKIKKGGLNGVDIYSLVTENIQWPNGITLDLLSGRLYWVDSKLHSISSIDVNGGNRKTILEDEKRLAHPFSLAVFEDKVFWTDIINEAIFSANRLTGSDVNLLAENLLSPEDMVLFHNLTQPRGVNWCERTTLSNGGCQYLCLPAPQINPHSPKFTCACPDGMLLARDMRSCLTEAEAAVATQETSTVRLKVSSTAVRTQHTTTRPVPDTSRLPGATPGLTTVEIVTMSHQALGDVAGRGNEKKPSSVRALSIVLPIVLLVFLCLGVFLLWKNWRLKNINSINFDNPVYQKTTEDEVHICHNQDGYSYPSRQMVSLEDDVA

Regarding lactoferrin, the Percent Inhibition in experiment [1] is 5%; in experiment [2], 4%.
Take “hypertriglyceridemic very low density lipoprotein Sf100-400 (HTG-VLDL) (from UniProt P04114 28-4563; P04114 28-2179; P02649 19-317; P02656 21-99)”: the Bmax in experiment [3] was found to be 96; in [4], 66; in [5], 160. In addition, the Kd in experiment [5] was determined as 1.4 µg/mL. Moreover, the specific binding activity (ng/mg THP-1 cell protein) in experiment [6] is 24. The same substance yielded a specific binding activity (ng/mg fibroblast cell protein) in experiment [7] of 237.
For “trypsinized VLDL Sf100-400, devoid of apoE (tryp-VLDL) (from UniProt P04114 28-4563)”, the specific binding (0% inhibition) (fmol/mg cell protein) in [8] stood at 140.
With preimmune IgG (rabbit 1325) (antibody), the percent of binding blocked in experiment [9] was determined as 25%.
For the substance “trypsinized VLDL2 (tryp-VLDL2) (from UniProt P04114 28-4563)”, the specific binding (0% inhibition) (fmol/mg cell protein) in experiment [8] is 20.
In the case of Unlabeled VLDL (20x), P04114 28-4563, the Percent Inhibition in [10], in [11] and in experiment [12] was 100% each time.
